Data set [1] addresses T1, fructosyl valine-histidine-leucine.
T1 chain: VHL

Data set [2] deals with T2, fructosyl valine-histidine.
T2 chain: VH

For data set [3], the target named is T3, fructosyl valine-leucine-serine.
T3 chain: VLS

The next data set deals with T4, fructosyl valine-leucine.
T4 chain: VL

B1: fructosylamine oxidase FAO-Q2 from Fusarium proliferatum GL2-1 strain (protein)
chain: MARTVAPLNKDSGILIVGGGTWGCSTALHLARRGYTNVTVLDVNRIPSPISAGHDVNKLSNRLGTSDSKGDDEDSIWKALTYAAAQGWLHDPIFQPFCHNTGAVMAGSTPKSIKQLVEDEIGDDIDQYTPLNTAEDFRRTMPERILTGDFLGWKGFYKPRGSGWVHARKAMKAAFEESQRLGVKFITGSPEGKVESLVFEAGDVKGAKTADGKEHRADRTILSAGASAEFSLDFENQIRPTAWTLGHIQMTAEETKLYKELPPLFNINQGFFMEPDEDLHQLKMCDEHPGYCNWVDKPGSKYPQSIPFAKYQVPIEAERRMKQFLKDIMPQLADRPLVHARICWCADTQDRMFLITYHPRHPSLVIASGDCGTGYKHITSIGKFISDCMEGTLEERFAKFWRWRPEKFTEFWGKDPLDRFGADDKIMDLPKSDAEGWTDIQNDK
For the protein B1, the Relative activity (%) in data set [1] is 0.6%; in data set [2], 2.4%; in data set [3] it was 3.3%; with fructosyl valine-leucine, 0.6%.

B2: fructosylamine oxidase FAO-Q1 from Fusarium proliferatum GL2-1 strain (protein)
chain: MAGPPSSILIVGSGVFGLGTAWALAKRSHFSNTSITVVDDCAGQFPPEDAASVDSSRIVRADYSDPYYAALAAEAQKEWRKQGDHEVGGQGRYSESGFVLCASETPEDFKLKKSGMDYTKESAKNVELIAKETGLPVDKIQKLESTKALQEFLGTDGYPGDWGYLNGNSGWADAGEGMKWLYKQAQATGRIHFVNGKVTELVTEGDRVIGAKLSDSKILKADVVMVAAGAWSGSLVDLRGRTEATGHAVAYMDITPEEQKRLDNFPVVLNLSTGLFLIPPRNNVLKAARHTFGYINPVKINNALPPSPNDKREPFIASQPYTSRNDSSNPLTVEADKDLRRALTDLCPIRGLETRPWKEARICWYSDTRDGEWLIDYHPGWKGLFVATGDSGHGFKFLPNLGEKIVDVMQGQGGKLGEKWRWKEIQNDGVGRETNGVYTGLVTEDGSRGGRPLVLCDELEKGRALIGNTKAKL
Consider B2, for which the Relative activity (%) with fructosyl valine-leucine was 1.1%.
